The record followed here is patent US20070009988A1.

The target in data set [1] is gliadin 33mer … (wheat). Description: cell-based or functional assay.
Data set [2] concerns the target Ala-proNPY.
Data set [3] deals with Gly-Ser-proNPY.
Data set [4] deals with T1, gliadin 14mer PQPQLPYPQPQLPY
T1 chain: PQPQLPYPQPQLPY

The target of data set [5] is T2, gliadin 33mer LQLQPFPQPQLPYPQPQLPYPQPQLPYPQPQPF
T2 chain: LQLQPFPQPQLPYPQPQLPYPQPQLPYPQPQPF

Consider Pronase, for which, in data set [1], the digestion of the peptide over 20 h, E/S=1/25 was < 40%.

B1: recombinant ruLAP2 (aminopeptidase II of Trichophyton rubrum) produced in P. pastoris (protein)
chain: RLVGQEPFGWPFKPMVTQDDLQNKIKLKDIMAGVEKLQSFSDAHPEKNRVFGGNGHKDTVEWIYNEIKATGYYDVKKQEQVHLWSHAEAALNANGKDLKASAMSYSPPASKIMAELVVAKNNGCNATDYPANTQGKIVLVERGVCSFGEKSAQAGDAKAAGAIVYNNVPGSLAGTLGGLDKRHVPTAGLSQEDGKNLATLVASGKIDVTMNVISLFENRTTWNVIAETKGGDHNNVIMLGAHSDSVDAGPGINDNGSGSIGIMTVAKALTNFKLNNAVRFAWWTAEEFGLLGSTFYVNSLDDRELHKVKLYLNFDMIGSPNFANQIYDGDGSAYNMTGPAGSAEIEYLFEKFFDDQGIPHQPTAFTGRSDYSAFIKRNVPAGGLFTGAEVVKTPEQVKLFGGEAGVAYDKNYHRKGDTVANINKGAIFLNTRAIAYAIAEYARSLKGFPTRPKTGKRDVNPQYSKMPGGGCGHHTVFM
Turning to B1, in data set [2], the “mass loss after overnight digestion (ESI-MS)” value is on record as “the N-terminal alanine was almost totally removed (molecular mass loss of 71 amu) from proNPY”. Moreover, the “mass loss after overnight digestion (ESI-MS), E/S 1:20 and 1:100” value in data set [3] is recorded as “incubation with ruLAP2 results in the cleavage of the two N-terminal residues Gly-Ser with a theoretical loss of 144.1 amu (found 144.2)”. Also, the “digestion of the peptide, 37 C, 4 h, RP-HPLC and ESI-MS” value in data set [4] is “the 14mer is not digested with ruLAP2 within 4 h. There is no change in the HPLC profile when compared with the control. In fact, digestion results only in the cleavage of the N-terminal Proline”.

B2: cytosolic leucine aminopeptidase from porcine kidney (Sigma) (protein)
chain: TKGLVLGIYSKEKEDDAPQFTSAGENFDKLVSGKLREILNISGPPLKAGKTRTFYGLHEDFSSVVVVGLGKKGAGVDDQENWHEGKENIRAAVAAGCRQIQDLEIPSVEVDPCGDAQAAAEGAVLGLYEYDELKQKKKVVVSAKLHGSGDQEAWQRGVLFASGQNLARHLMETPANEMTPTRFAEVIEKNLKSASSKTDVHIRPKSWIEEQEMGSFLSVAKGSEEPPVFLEIHYKGSPDASDPPLVFVGKGITFDSGGISIKASANMDLMRADMGGAATICSTIVSAAKLDLPINLVGLAPLCENMPSGKANKPGDVVRAKNGKTIQVDNTDAEGRLILADALCYAHTFNPKVIINAATLTGAMDIALGSGATGVFTNSSWLWNKLFEASIETGDRVWRMPLFEHYTKQIVDCQLADVNNIGKYRSAGACTAAAFLKEFVTHPKWAHLDIAGVMTNKDEVPYLRKGMAGRPTRTLIEFLLRFSQDSA
Take B2: in data set [5], the “digestion of the peptide, RP-HPLC” value is “Cytosolic porcine kidney aminopeptidase is totally inactive towards the 33mer”.

B3: microsomal leucine aminopeptidase from porcine kidney (Sigma) (protein)
chain: YAQEKNKNAEHVPQAPTSPTITTTAAITLDQSKPWNRYRLPTTLLPDSYNVTLRPYLTPNADGLYIFKGKSIVRLLCQEPTDVIIIHSKKLNYTTQGHMVVLRGVGDSQVPEIDRTELVELTEYLVVHLKGSLQPGHMYEMESEFQGELADDLAGFYRSEYMEGNVKKVLATTQMQSTDARKSFPCFDEPAMKATFNITLIHPNNLTALSNMPPKGSSTPLAEDPNWSVTEFETTPVMSTYLLAYIVSEFQSVNETAQNGVLIRIWARPNAIAEGHGMYALNVTGPILNFFANHYNTSYPLPKSDQIALPDFNAGAMENWGLVTYRENALLFDPQSSSISNKERVVTVIAHELAHQWFGNLVTLAWWNDLWLNEGFASYVEYLGADHAEPTWNLKDLIVPGDVYRVMAVDALASSHPLTTPAEEVNTPAQISEMFDSISYSKGASVIRMLSNFLTEDLFKEGLASYLHAFAYQNTTYLDLWEHLQKAVDAQTSIRLPDTVRAIMDRWTLQMGFPVITVDTKTGNISQKHFLLDSESNVTRSSAFDYLWIVPISSIKNGVMQDHYWLRDVSQAQNDLFKTASDDWVLLNVNVTGYFQVNYDEDNWRMIQHQLQTNLSVIPVINRAQVIYDSFNLATAHMVPVTLALDNTLFLNGEKEYMPWQAALSSLSYFSLMFDRSEVYGPMKKYLRKQVEPLFQHFETLTKNWTERPENLMDQYSEINAISTACSNGLPQCENLAKTLFDQWMSDPENNPIHPNLRSTIYCNAIAQGGQDQWDFAWGQLQQAQLVNEADKLRSALACSNEVWLLNRYLGYTLNPDLIRKQDATSTINSIASNVIGQPLAWDFVQSNWKKLFQDYGGGSFSFSNLIQGVTRRFSSEFELQQLEQFKKNNMDVGFGSGTRALEQALEKTKANIKWVKENKEVVLNWFIEHS
B3: the “digestion of the peptide, RP-HPLC and ESI-MS” value in data set [5] is “incubation with microsomal porcine kidney aminopeptidase results only in a partial deletion of N-terminal Leu and C-terminal Phe (due to a carboxypeptidasic contaminant)”.
